Measured values published in publication PMC2192707.

Biological target: T1, calnexin (UniProt P35564)
T1 sequence: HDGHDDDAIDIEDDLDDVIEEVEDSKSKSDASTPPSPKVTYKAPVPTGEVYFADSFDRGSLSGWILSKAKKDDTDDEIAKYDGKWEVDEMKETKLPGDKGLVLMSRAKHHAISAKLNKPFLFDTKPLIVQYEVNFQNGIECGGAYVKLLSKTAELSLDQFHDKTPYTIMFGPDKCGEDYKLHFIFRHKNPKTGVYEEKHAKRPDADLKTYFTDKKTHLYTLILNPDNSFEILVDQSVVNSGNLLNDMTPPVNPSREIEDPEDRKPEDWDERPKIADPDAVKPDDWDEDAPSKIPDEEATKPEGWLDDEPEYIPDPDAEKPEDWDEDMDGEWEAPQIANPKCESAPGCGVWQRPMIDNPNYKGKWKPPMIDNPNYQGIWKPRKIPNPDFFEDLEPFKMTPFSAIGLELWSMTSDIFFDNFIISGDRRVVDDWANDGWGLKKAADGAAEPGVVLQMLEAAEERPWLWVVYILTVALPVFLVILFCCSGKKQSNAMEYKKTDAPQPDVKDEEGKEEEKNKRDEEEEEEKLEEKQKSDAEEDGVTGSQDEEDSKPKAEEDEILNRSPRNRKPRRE
Conditions: co-IP

Question: “H-2Db class I heavy chain (endogenous in EL4)” was tested. Which “percent of heterodimers associated with calnexin” value did it give?
Answer: 85% ofD b heterodimers

Question: H-2Kb class I heavy chain was tested. Which “percent of heterodimers associated with calnexin” value did it give?
Answer: ~45% ofK b heterodimers
